Experiment [1] deals with T1, HuCDCP1-B (human, UniProt Q9H5V8 343-667).
T1 construct: range 343-667; expressed in HEK-293T, purified by Fc/his tag; also called human CDCP1-B; membrane-proximal region of CDCP1; not shown: Fc or his tag
T1 sequence (looked up): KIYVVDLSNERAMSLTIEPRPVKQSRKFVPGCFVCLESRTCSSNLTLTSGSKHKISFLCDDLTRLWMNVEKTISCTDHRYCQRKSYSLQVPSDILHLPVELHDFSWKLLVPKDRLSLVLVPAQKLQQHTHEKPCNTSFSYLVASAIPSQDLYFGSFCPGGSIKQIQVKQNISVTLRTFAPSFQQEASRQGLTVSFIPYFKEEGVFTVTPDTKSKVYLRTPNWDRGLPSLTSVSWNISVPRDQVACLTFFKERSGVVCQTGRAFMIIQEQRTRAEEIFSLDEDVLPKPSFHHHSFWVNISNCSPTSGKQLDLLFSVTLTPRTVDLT
Kind of experiment: SPR (Caterra or Biacore), antigen immobilized. Background: SPR reads the build-up and loss of mass on a sensor chip optically.

Experiment [2] addresses T2, human CDCP1 on tumor cells (human, UniProt Q9H5V8 30-836).
T2 construct: whole, on cells; cell line is named under assay or readout
T2 sequence (looked up): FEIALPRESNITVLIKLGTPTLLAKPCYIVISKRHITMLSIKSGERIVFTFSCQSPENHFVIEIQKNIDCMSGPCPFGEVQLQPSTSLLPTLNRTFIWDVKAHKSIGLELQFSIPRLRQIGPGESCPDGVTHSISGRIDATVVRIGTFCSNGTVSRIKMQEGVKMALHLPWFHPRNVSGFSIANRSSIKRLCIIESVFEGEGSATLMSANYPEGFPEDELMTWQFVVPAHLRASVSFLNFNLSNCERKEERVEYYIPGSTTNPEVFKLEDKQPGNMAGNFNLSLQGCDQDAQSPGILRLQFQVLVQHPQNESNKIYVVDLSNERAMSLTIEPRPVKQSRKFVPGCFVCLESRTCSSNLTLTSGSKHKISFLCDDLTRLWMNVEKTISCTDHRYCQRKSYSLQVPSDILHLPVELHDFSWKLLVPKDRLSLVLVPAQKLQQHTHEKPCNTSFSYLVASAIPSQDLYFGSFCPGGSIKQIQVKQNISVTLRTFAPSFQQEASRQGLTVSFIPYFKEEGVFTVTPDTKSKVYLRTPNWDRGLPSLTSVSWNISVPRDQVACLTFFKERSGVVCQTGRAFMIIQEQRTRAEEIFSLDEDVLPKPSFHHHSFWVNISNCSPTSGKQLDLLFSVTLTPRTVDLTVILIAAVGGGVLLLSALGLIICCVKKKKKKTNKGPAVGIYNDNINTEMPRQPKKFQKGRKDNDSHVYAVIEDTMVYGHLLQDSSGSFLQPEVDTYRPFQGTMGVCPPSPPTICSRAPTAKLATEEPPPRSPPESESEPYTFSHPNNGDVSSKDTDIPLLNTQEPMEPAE
Kind of experiment: flow cytometry, MDA-MB-231 cells. The procedure: (§1) Flow cytometry was used to detect the binding capacity of antibody to tumor cells. […] 2.0×10⁴ tumor cells were added per well, respectively, and 50 μL (PBS+2% FBS) were added, and after blocking at room temperature with an Fe blocker (Human TruStain FcX™, Biolegend, 422302) for 10 mins, an anti-CDCP1 murine monoclonal antibody at a final concentration of 200 nM was added. The obtained mixture was subjected to a 3-fold serial dilution across 8 concentration points, and incubated at 4° C. for 30 mins, and then incubated with a secondary antibody (PE anti-human IgG Fc Antibody, Biolegend, 410708), detection was performed using a flow cytometer.
(Flow cytometry measures light scatter and fluorescence of single cells or particles in a stream.)

Experiment [3] addresses T2, human CDCP1 on tumor cells. The experiment is described as follows: flow cytometry, PC3 cells. The procedure: as §1

One molecule from patent US20260250410A1 (SICHUAN HUIYU PHARMACEUTICAL, published 2026) can be followed below.

B1: 3C11 (antibody, V domains shown)
VH: EVQLQQSGTVLARPGASVKMSCKASGYNFISYWLHWIKQRPGQGLEWIGGIYPGNTDTTYNQKFKGKAKVTAVTSATTAYMELSSLTNEDSAVYYCIRYDYDRGMDYWGQGTTVTVSS
VL: DIQMTQSPSSFSVSLGDRVTITCRASEDIYYRLAWYQQKPGNAPRLLISGATALETGVPSRFSGSGSGKDYTLSITSLQTEDVATYYCQHYWNIPWTFGGGTKLEIK
notes: murine hybridoma mAb
As for B1, the EC50 (in general, the concentration giving half of the maximal effect) was 3.78 nM in experiment [1], 0.27 nM in experiment [2] and 0.23 nM in experiment [3].
